The target in assay [1] is T1, PVRIG (FACS-based competition assay of FIGS. 7 and 15) (Homo sapiens, UniProt Q6DKI7).
T1 construct: made because the format of the assay is only described in U.S. Ser. No. 15/048,967; also called human PVRIG
T1 sequence (receptor, looked up): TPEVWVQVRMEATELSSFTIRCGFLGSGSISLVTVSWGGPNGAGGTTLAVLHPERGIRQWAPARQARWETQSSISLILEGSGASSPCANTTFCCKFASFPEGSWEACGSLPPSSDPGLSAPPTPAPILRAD
Kind of assay: FACS-based competition assay of PVRIG blocking; format and competitor not given.

The target of assay [2] is T2, cynomolgus PVRIG on cells (cynomolgus, UniProt A0A2K5WVV8 41-322).
T2 construct: whole, on cells; also called cPVRIG; expi cPVRIG cells
T2 sequence: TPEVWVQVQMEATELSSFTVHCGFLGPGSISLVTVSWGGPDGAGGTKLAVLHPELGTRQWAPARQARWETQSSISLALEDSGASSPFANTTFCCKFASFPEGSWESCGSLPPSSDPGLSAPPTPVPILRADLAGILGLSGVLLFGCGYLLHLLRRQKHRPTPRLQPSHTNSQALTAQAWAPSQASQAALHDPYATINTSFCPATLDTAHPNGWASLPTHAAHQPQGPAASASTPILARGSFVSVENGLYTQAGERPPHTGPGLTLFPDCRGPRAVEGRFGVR
As to the kind of experiment: FACS, cyno PBMC, CD8+ T cells, 10ug/ml.

Assay [3] deals with T1, PVRIG (FACS-based competition assay of …). Kind of assay: FACS-based competition assay of PVRIG blocking; format and competitor not given. This is another data set of the same source.
Assay [4] has as its target T3, human PVRIG on cells (human, UniProt Q6DKI7 1-326).
T3 construct: whole, on cells; over-expressed on HEK cells or endogenous on Jurkat and CD8 T cells; also called hPVRIG; HEK hPVRIG cells
T3 sequence (looked up): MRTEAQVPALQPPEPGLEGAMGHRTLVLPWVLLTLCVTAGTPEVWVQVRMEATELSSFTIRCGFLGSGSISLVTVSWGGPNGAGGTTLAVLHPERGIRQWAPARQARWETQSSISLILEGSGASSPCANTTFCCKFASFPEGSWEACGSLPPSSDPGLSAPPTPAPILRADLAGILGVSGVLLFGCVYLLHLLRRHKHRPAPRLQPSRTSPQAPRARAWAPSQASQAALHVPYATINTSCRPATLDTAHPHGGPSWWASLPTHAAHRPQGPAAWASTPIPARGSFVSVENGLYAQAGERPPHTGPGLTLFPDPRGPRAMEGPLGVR
As to the kind of experiment: FACS, Jurkat cells, relative to control, 3.3ug/ml.

Assay [5] deals with T3, human PVRIG on cells. Kind of assay: FACS, human PBMC, CD8+ T cells, 10ug/ml. On the technique in general: A flow cytometer gives signals particle by particle.
Assay [6] concerns the target T3, human PVRIG on cells. Kind of assay: FACS, human PBMC, CD56 int. NK cells, 10ug/ml.
Assay [7] concerns the target T3, human PVRIG on cells. Kind of assay: FACS, HEK hPVRIG cells (HEK OE).
Assay [8] deals with T3, human PVRIG on cells. As to the kind of experiment: FACS, human PBMC, CD56 int. NK cells, 10ug/ml. The source holds these as a separate data set.
Assay [9] concerns the target T2, cynomolgus PVRIG on cells. As to the kind of experiment: FACS, expi cPVRIG over expi parental cells, 3.3ug/ml.
Assay [10] has as its target T3, human PVRIG on cells. As to the kind of experiment: FACS, HEK hPVRIG over HEK parental cells, 3.3ug/ml.
Assay [11] has as its target T3, human PVRIG on cells. Kind of assay: FACS, human PBMC, CD8+ T cells, 10ug/ml. This is another data set of the same source.
The target in assay [12] is T2, cynomolgus PVRIG on cells. As to the kind of experiment: FACS, cyno PBMC, NK cells, 10ug/ml.
Assay [13] addresses T2, cynomolgus PVRIG on cells. As to the kind of experiment: FACS, expi cPVRIG over expi parental cells, 3.3ug/ml. The source holds these as a separate data set.
In assay [14] the target is T2, cynomolgus PVRIG on cells. Kind of assay: FACS, cyno PBMC, NK cells, 10ug/ml. The source holds these as a separate data set.
Assay [15] deals with T2, cynomolgus PVRIG on cells. Kind of assay: FACS, expi cPVRIG over expi parental cells, 3.3ug/ml. The source holds these as a separate data set.
Assay [16] deals with T3, human PVRIG on cells. As to the kind of experiment: FACS, human PBMC, CD8+ T cells, 10ug/ml. The source holds these as a separate data set.
Assay [17] concerns the target T3, human PVRIG on cells. Kind of assay: FACS, human PBMC, CD56 int. NK cells, 10ug/ml. The source holds these as a separate data set.
Assay [18] addresses T2, cynomolgus PVRIG on cells. As to the kind of experiment: FACS, cyno PBMC, CD8+ T cells, 10ug/ml. This is another data set of the same source.

Read-outs that look alike come from different tables or passages of the source.

B1: CHA.7.516 (antibody, V domains shown)
VH: QVQLQQSGPELVRPGVSVKISCKVSGYTFTDYVMHWVKQSHAKSLEWIGIISPYSGNTNYNQNFKGKATMTVDKSSSTAYMALARLTSEDSAIYYCAREGDLPMFAYWGQGTLVTVSA
VL: QIVLTQSPTIMSASPGEKVTMTCSASSSVSYIYWYQQNPGSSPRLLIYDTSILASGVPFRFSGSGSGTSYSLTISRMEAEDAATYYCQQWTSYPLTFGSGTKLELK
Take B1: the half-inhibitory concentration (IC50) in [1] and in assay [3] was 33.1 nM throughout. In addition, the “gMFIr Cyno CD8+ T cells” value in assay [2] was determined as 2.09. The “gMFIr Jurkat” value in the assay with human PVRIG on cells [4] amounted to 5.73. For the same molecule, the “gMFIr Human CD8+ T cells” value in the assay with human PVRIG on cells [5] and in the assay with human PVRIG on cells [11] was 4.09 in each case. In addition, the “gMFIr Human CD56 int. NK” value with human PVRIG on cells [6] and with human PVRIG on cells [8] was 4.22 in each case. The same molecule showed an EC50 with human PVRIG on cells [7] of 0.79 nM. The “gMFIr Expi cyno OE/par” value in assay [9] and in assay [13] was 60 in each case. Moreover, the “gMFIr HEK OE/par” value with human PVRIG on cells [10] was 37.9. Further, the “gMFIr Cyno NK cells” value in assay [12] is 1.76.

B2: CHA.7.524 (antibody, V domains shown)
VH: QVQLQQSGPEVVRPGVSVKISCKGSGYKFPDYVMHWVKQSHAKSLEWIGIISIYSGNTNYNQKFKGKATMTVDKSSSTAYMELARLTSEDSAIYYCAREGDLPMFAYWGQGTLVTVSA
VL: QIVLTQSPAIMSASPGEKVTMTCNASSSVSYMYWYQQKPISSPRLLIYDTSNLASGVPVRFSGSGSGTSYSLTIGRMEAEDAATYYCQQWSSYPLTFGAGTKVEVK
Regarding B2, the IC50 in [1] and in [3] was 30.2 nM each time. Besides, the “gMFIr Cyno CD8+ T cells” value in assay [2] and in [18] was 2.02 throughout. Also, the “gMFIr Cyno NK cells” value in [14] and in assay [12] was 1.78 each time. For the same molecule, the “gMFIr Jurkat” value in the assay with human PVRIG on cells [4] was 7.87. For the same molecule, the “gMFIr Human CD56 int. NK” value in the assay with human PVRIG on cells [6] and in the assay with human PVRIG on cells [17] was 5.5 each time. Further, the “gMFIr Expi cyno OE/par” value in [15] and in assay [9] was 66.3 throughout. The EC50 with human PVRIG on cells [7] stood at 0.46 nM. Further, the “gMFIr Human CD8+ T cells” value in the assay with human PVRIG on cells [16] and with human PVRIG on cells [11] was 6.12 each time. Besides, the “gMFIr HEK OE/par” value with human PVRIG on cells [10] was 48.3.

B3: CHA.7.530 (antibody, V domains shown)
VH: QVQLQQSGAELMRPGTSVKVSCKASGYAFTNHLIEWIKQRPGQGLEWIGVINPGSDSTDYNEKFKDKATLTADKSSSTAYMQLSSLTSDDSAVYFCARSLYYNSWFVYWGQGTLVTVSA
VL: DIQMTQSPASLSASVGETVTITCRASENIYSYLAWYQQKRGKSPQLLVYNAKTLVEGVPSRFSGSGSGTQFSLKINSLQPEDFGSYYCQHHYGTPYTFGGGTKLEIK
B3: the IC50 in [1] and in assay [3] was 34.6 nM throughout. Also, the “gMFIr Cyno CD8+ T cells” value in [2] and in assay [18] was 1.89 each time. For the same molecule, the “gMFIr Cyno NK cells” value in assay [14] and in assay [12] was 1.73 throughout. Further, in the assay with human PVRIG on cells [4], the “gMFIr Jurkat” value came to 8.04. The “gMFIr Human CD56 int. NK” value in the assay with human PVRIG on cells [6] and in the assay with human PVRIG on cells [17] was 6.04 throughout. In addition, the “gMFIr Expi cyno OE/par” value in assay [15] and in assay [9] was 60.8 in each case. In the assay with human PVRIG on cells [7], this molecule yielded an EC50 of 0.33 nM. Also, the “gMFIr Human CD8+ T cells” value with human PVRIG on cells [16] and in the assay with human PVRIG on cells [11] was 6.47 throughout. In addition, the “gMFIr HEK OE/par” value in the assay with human PVRIG on cells [10] stood at 51.1.

B4: CHA.7.528 (antibody, V domains shown)
VH: EVQVQQSGPELVKPGASVKISCKASGYTFTKSNMHWVKQSHGKSLEWIGYIYPYNGGTGYNQNFKSKATLTVDISSSTAYMELRSLTLEDSAVYLCAREADYYGNRGQFDYWGQGTLVTVSA
VL: DIQMTQSPASLSVSVGETVTITCRASDNIFSNLAWYHQKQGKSPHLLVYGATNLADGVPSRFSGSGSGTQYSLKINSLQSEDFGDYYCQHFWGTPYTFGGGTKLEIK
Consider B4, for which the IC50 in assay [1] and in assay [3] was 28.9 nM in each case. Further, the “gMFIr Cyno CD8+ T cells” value in assay [2] and in assay [18] was 1.18 in each case. Besides, the “gMFIr Cyno NK cells” value in assay [14] and in assay [12] was 1.21 each time. In addition, in the assay with human PVRIG on cells [4], the “gMFIr Jurkat” value was determined as 6.17. The “gMFIr Human CD56 int. NK” value with human PVRIG on cells [6] and in the assay with human PVRIG on cells [17] was 3.08 in each case. Besides, the “gMFIr Expi cyno OE/par” value in assay [15] and in assay [9] was 12.2 each time. In the assay with human PVRIG on cells [7], this molecule yielded a concentration for a half-maximal effect (EC50) of 7.31 nM. The “gMFIr Human CD8+ T cells” value in the assay with human PVRIG on cells [16] and with human PVRIG on cells [11] was 3.63 each time. Moreover, the “gMFIr HEK OE/par” value with human PVRIG on cells [10] was determined as 44.9.

B5: CHA.7.537 (antibody, V domains shown)
VH: QVQLKESGPGLVAPSQSLSITCTVSGFSLIGHGVNWIRQPPGKGLEWLGVIWGDGNTDYNSALKSRLSISKDNSKSQVFLKMNSLQTDDTARYFCAVNSAMDYWGQGTAVTVSS
VL: NIVMTQSPKSMSMSVGERVTLNCTASENVASFVSWYQQKPEQSPKLLIYGTSNRYTGVPDRFTGSGSATDFTLTISSVQAEDLGDYHCGQSYNYPFTFGSGTKLEIE
As for B5, the IC50 in assay [1] and in [3] was 39 nM each time. For the same molecule, the “gMFIr Cyno CD8+ T cells” value in [2] and in assay [18] was 1.19 throughout. In addition, the “gMFIr Cyno NK cells” value in assay [14] and in assay [12] was 1.18 each time. The “gMFIr Jurkat” value with human PVRIG on cells [4] was determined as 5.53. For the same molecule, the “gMFIr Human CD56 int. NK” value in the assay with human PVRIG on cells [6] and with human PVRIG on cells [17] was 3.9 in each case. The “gMFIr Expi cyno OE/par” value in [15] and in [9] was 1.55 each time. In the assay with human PVRIG on cells [7], this molecule had a concentration giving a half-maximal response (EC50) of 2.47 nM. Further, the “gMFIr Human CD8+ T cells” value with human PVRIG on cells [16] and in the assay with human PVRIG on cells [11] was 3.41 in each case. Further, the “gMFIr HEK OE/par” value with human PVRIG on cells [10] stood at 36.6.

A word on the IC50: it is the midpoint of a concentration-inhibition curve. A low value points to inhibition by little substance. Broadly, the EC50 is the concentration that produces a half-maximal response. A high value points to a need for much substance.

For the origin of these results see US20240075137A1 (COMPUGEN, published 2024).
